US11124558B2, “Use of tetranectin and peptide agonists to treat inflammatory diseases” (The Feinstein Institutes for Medical Research, priority 2017, dated 2021)

Legend:
[1] = tested on: HMGB1 release, primary murine peritoneal macrophages; experiment: LPS- or SAA-induced HMGB1 release in primary murine peritoneal macrophages (Western blotting); type: cell-based; conditions: for inhibition of LPS- or SAA-induced HMGB1 release: primary murine peritoneal macrophages, 16 h, serum-free OPTI-MEM I, TN from HEK293 or E. coli
Protocol: (§1) A, B, Primary murine peritoneal macrophages. C, Primary human peripheral blood mononuclear cells (HuPBMCs). Murine macrophages or human monocytes (HuPBMCs) were cultured in serum-free OPTI-MEM I medium, and stimulated with LPS or SAA for 16 h at the indicated concentrations. The extracellular HMGB1 levels were determined by Western blotting, and expressed as % of maximal stimulation by LPS or SAA alone.
(§2) Immune-modulating properties of tetranectin: To explore TN's immune-modulating properties, its effects on the LPS- and SAA-induced HMGB1 release were examined in murine macrophage and human monocyte cultures. […] This inhibition was TN-dose-dependent, evident at concentrations as low as 5.0 μg/ml, and became more dramatic (with 50-100% inhibition) at higher doses.
(§3) Effects of TN on the LPS-, IFN-γ-, or SAA-induced HMGB1 release. To elucidate the regulatory mechanisms of HMGB1 release, we will examine the impact of TN and its peptide agonists on the HMGB1 release induced by a wide array of inflammatory stimuli including the crude LPS [75], IFN-γ [76] and SAA [77], in macrophage and monocyte cultures. Primary peritoneal macrophages will be isolated from the Balb/C mice (both male and female, 7-8 weeks, 20-25 g) at 2-3 days after intraperitoneal injection of 2 ml thioglycollate broth (4%, Difco, Detroit, Mich.) as previously described. Human peripheral blood mononuclear cells (HuPBMCs) will be isolated from human blood obtained from the Long Island Blood Bank (NY) by density gradient centrifugation through Ficoll as previously described. At 80-90% confluence, macrophage/monocyte cultures will be stimulated with the crude LPS (Cat. No. L3012, Sigma-Aldrich), IFN-γ (Cat. No. 14777, Sigma-Aldrich), or SAA (Cat. No. 300-13, PeproTech) at different concentrations and for various time periods. The extracellular levels of HMGB1 in the culture medium will be determined by Western blotting as previously described.

[2] = tested on: HMGB1 release, human peripheral blood mononuclear cells (HuPBMCs); experiment: LPS- or SAA-induced HMGB1 release in primary human peripheral blood mononuclear cells (Western blotting); type: cell-based; conditions: for inhibition of LPS- or SAA-induced HMGB1 release: HuPBMCs / human monocytes, 16 h, TN from HEK293 or E. coli
Protocol: as §1, §2, §3

[3] = tested on: GRO/CXCL1 and ENA-78/CXCL5 secretion, HuPBMCs; experiment: Cytokine/chemokine secretion by HuPBMCs (Cytokine Antibody Arrays); type: cell-based; conditions: primary human monocytes / HuPBMCs, TN 20 μg/ml, 16 h
Protocol: Human blood was purchased from the Long Island Blood Bank, and HuPBMCs were isolated by density gradient centrifugation through Ficoll, and stimulated with recombinant TN (20 μg/ml) expressed in HEK293 or E. coli for 16 h. The extracellular levels of cytokines and chemokines were determined by Cytokine Antibody Arrays.
In light of the protective roles of these neutrophil-attracting chemokines, CXCL1/KC [67,68] and CXCL5/ENA-78 [69,70] in LSI, it is important to determine whether TN could modulate leukocyte infiltration to facilitate potential pathogen elimination during sepsis.

[4] = tested on: lethal endotoxemia, Balb/C mice; experiment: Lethal endotoxemia (LPS) survival in mice; type: in vivo; conditions: LPS 5 mg/kg i.p., male Balb/C mice, TN given i.p., survival monitored more than two weeks
Protocol: FIG. 6A-6C: Recombinant TN protected mice against lethal endotoxemia and sepsis. Male Balb/C mice were subjected to lethal endotoxemia (LPS, 5 mg/kg, i.p., Panel A) or sepsis by cecal ligation and puncture (CLP, Panel B, C), and recombinant TN produced in HEK293 (Panel A, B) or E. coli (Panel C) was given intraperitoneally at indicated dosing regimens. Animal survival rates were monitored for more than two weeks to ensure no later death. Shown in Panel B and C is a summary of two independent experiments with similar results.
Effects of TN or peptide agonist on LSI. Balb/C mice (both male and female, 7-8 weeks, 20-25 g) are subjected to lethal endotoxemia or sepsis as described above, and the recombinant TN is injected (i.p.) at various doses and time points (2, 24, and 48 h) after the onset of endotoxemia or sepsis. Their effects on the outcomes of LSI is assessed by comparing the long-term (two-week) survival rates between the TN-treated groups with saline vehicle-treated controls. By varying the time points (e.g., 2, 12, 24 or 36 h) when the first dose of TN will be given to animals, the therapeutic windows for the TN-based therapy is estimated. […] It will be critical to continue these exciting experiments using other dosing regimens to further validate TN's protective role in LSI.
Effects of TN or peptide agonist supplementation on LSI. Balb/C mice (both male and female, 7-8 weeks, 20-25 g) are subjected to lethal endotoxemia or sepsis as described above, and the recombinant TN will be injected (i.p.) at various doses and time points (2, 24, and 48 h) after the onset of endotoxemia or sepsis. Their effects on the outcomes of LSI will be assessed by comparing the long-term (two-week) survival rates between the TN-treated groups with saline vehicle-treated controls. By varying the time points (e.g., 2, 12, 24 or 36 h) when the first dose of TN will be given to animals, the therapeutic windows for the TN-based therapy will be estimated.

[5] = tested on: circulating D-dimer, endotoxemic Balb/C mice; experiment: Plasma D-dimer level in endotoxemic mice (ELISA); type: in vivo; conditions: 24 h post endotoxemia
Protocol: Venous blood was obtained from normal healthy and endotoxemic, Balb/C mice at 24 h post endotoxemia in the absence or presence of recombinant TN. The plasma level of fibrin degradation product (FDP's, e.g., D-dimer) was measured using commercial ELISA kit (Cat. No. EKU03631, Biomatik) as per the manufacturers' instructions. *, P<0.05 as compared to the positive control (+LPS alone).
In light of HMGB1's key role in the platelet activation/aggregation and its possible interaction with TN protein, the impact of TN or TN-specific peptide agonists on the pro-fibrinolytic activities is evaluated by measuring the plasma level of fibrin degradation products (FDP's, e.g., D-dimer) using commercial ELISA kits (Cat. No. EKU03631, Biomatik) as per the manufacturers' instructions. A parallel elevation of D-dimer levels is indicative of a possible acceleration of the fibrinolysis cascade by the TN treatment. However, a decrease in the D-dimer concentration is indicative of a reduction of either the plasmin-mediated fibrinolysis or the thrombin-mediated coagulation. […] Given the complex roles of fibrinolysis in sepsis, therapeutic agents that could control coagulation/fibrinolysis balance, while maintaining the host defense at the infectious foci, can be useful for understanding the complex pathogenesis of lethal systemic inflammatory diseases.

[6] = tested on: HMGB1 release; experiment: LPS/SAA-induced HMGB1 release, summary statement (cells not specified); type: cell-based
[7] = listed as recombinant human TN protein

B1: tetranectin (protein, listed as Homo sapiens)
chain: EPPTQKPKKIVNAKKDVVNTKMFEELKSRLDTLAQEVALLKEQQALQTVCLKGTKVHMKCFLAFTQTKTFHEASEDCISRGGTLGTPQTGSENDALYEYLRQSVGNEAEIWLGLNDMAAEGTWVDMTGARIAYKNWETEITAQPDGGKTENCAVLSGAANGKWFDKRCRDQLPYICQFGIV
With B1 the “effect on LPS- or SAA-induced release of most other cytokines (G-CSF, IL-6, IL-12) and chemokines (KC, LIX, MIP-1α, MIP-2, RANTES)” value ([1]; data not shown, cells not specified) was “did not inhibit”, the “lowest concentration at which inhibition of HMGB1 release was evident” value ([1]; murine macrophages) was 5.0 µg/mL and the “inhibition of LPS- or SAA-induced HMGB1 release” value [1] was “dose-dependently inhibited”. For the same molecule, the “inhibition of LPS- or SAA-induced HMGB1 release” value [1, 7] was “capable of inhibiting”, the “inhibition of LPS- or SAA-induced HMGB1 release” value [2] was “dose-dependently inhibited” and the “inhibition of LPS- or SAA-induced HMGB1 release” value [2, 7] was “capable of inhibiting”. For the same molecule, the “lowest concentration at which inhibition of HMGB1 release was evident” value ([2]; human monocytes) was 5.0 µg/mL, the “inhibition of HMGB1 release at higher doses” value ([2]; human monocytes, doses above 5.0 μg/ml) was 50-100% and the “release of neutrophil-attracting chemokines (CXCL1/GRO-α/KC and CXCL5/ENA-78)” value (shortened to “release … (CXCL1/GRO-α/KC and CXCL5/ENA-78)”) [3] was “induced the release”. The “release … (CXCL1/GRO-α/KC and CXCL5/ENA-78)” value ([3]; listed as Recombinant TN) was “specifically induced”, the “release … (CXCL1/GRO-α/KC and CXCL5/ENA-78)” value ([3]; listed as recombinant TN) was “specifically stimulated” and the “protection against lethal endotoxemia (animal survival)” value (“protection against lethal endotoxemia” for short) [4] was “significant protection”. For the same molecule, the “protection against lethal endotoxemia” value ([4]; listed as Recombinant TN) was “protected”, the “protection against lethal endotoxemia” value ([4]; listed as recombinant TN) was “significant protection” and the “effect on endotoxin-induced elevation of circulating D-dimer levels” value ([5]; P<0.05 vs +LPS alone) was “significantly attenuated”. The “reduction of plasma D-dimer levels” value ([5]; at doses that conferred significant protection) was 40-50% and the “attenuation of LPS/SAA-induced HMGB1 release” value [6] was “dose-dependently attenuated”.
